These results are taken from patent CN110760489A, “一种川芎咖啡酸-o-甲基转移酶的突变体及其用途” (Southwest Jiaotong University, priority 2019, dated 2020).

Substrate in data set [1]: COC(=O)/C=C/c1ccc(O)c(O)c1
As to the kind of experiment: 动力学参数值测定 (kinetic parameters, double-reciprocal method), wild-type LcCOMT. In kind it is biochemical, Ligusticum chuanxiong. The note with it: other: substrate 咖啡酸甲酯 0.0715-0.25 mM, S-adenosylmethionine 1 mM, pH 7.0, 37℃, HPLC, double-reciprocal plot, 37.0 °C.

Substrate in data set [2]: COC(=O)/C=C/c1ccc(O)c(O)c1
In words: 动力学参数值测定 (kinetic parameters, double-reciprocal method), LcCOMT-I318T mutant. In kind it is biochemical, Ligusticum chuanxiong. Particulars: other: substrate 咖啡酸甲酯 0.0715-0.25 mM, S-adenosylmethionine 1 mM, pH 7.0, 37℃, HPLC, double-reciprocal plot, 37.0 °C.

Residue numbers refer to the chain shown, from its start. Names may count otherwise.

B1: Ligusticum chuanxiong caffeic acid O-methyltransferase LcCOMT, wild type [野生型LcCOMT; 川芎咖啡酸-O-甲基转移酶] (Conioselinum anthriscoides) (protein)
chain: MNTELIPPTFLEDEEEEACMFAMQLSSASVLPMVLKSAIELNLLESIAKAGPGVYVSPSHLAAGLPSSQPDTPVMLDRILRLLASYSVLNCQLRDLPQGRVERLYGLAPVCKFLTKNSDGVSMAPLLLMNQDKILMESWYHLKDAVLDGGIPFNKAYGMTAFEYHGKDPRFNKVFNQGMSNHSTITMKKILQTYDGFGGLKTVVDVGGGTGATLNMIISKYPNLKGINFDLPHVVEDAPSYPGVEHVGGDMFVSVPKGDAIFMKWICHDWSDAHCLTFLKNCYKALPKDGKVILAECILPEAPDSKLTTKNVIHIDVIMLAHNPGGKERTEKDFEALGKEAGFKSFNKACCAYNTWVIEYYK
As for B1, in data set [1], the Km was found to be 26.4 µM, the Vmax is reported as 2.643*10^-8 M/S and the kcat was found to be 0.113 S-1.

B2: Ligusticum chuanxiong caffeic acid O-methyltransferase LcCOMT variant LcCOMT-I318T (Ile318 to Thr), SEQ ID No.2 [LcCOMT-I318T突变体; 川芎咖啡酸-O-甲基转移酶] (Conioselinum … (protein)
chain: B1 chain with I318T
For B2, in data set [2], the Km stood at 19.7 µM.
